For this series, the target named is SmMYB53 (Salvia miltiorrhiza, UniProt A0A059PSP0 1-372). Kind of series: EMSA; SmMYB53 alone; LightShift Chemiluminescent EMSA kit (Beyotime) binding buffer, >30 min at 4 C; unlabeled competitor 10-fold; salt and pH not stated. The settings on record: protein: recombinant; tags: His (pCold); label: biotin; blunt. (A gel shift assay detects complexes by their altered migration in electrophoresis.)
SmMYB53, sequence (A0A059PSP0 entry or part of it): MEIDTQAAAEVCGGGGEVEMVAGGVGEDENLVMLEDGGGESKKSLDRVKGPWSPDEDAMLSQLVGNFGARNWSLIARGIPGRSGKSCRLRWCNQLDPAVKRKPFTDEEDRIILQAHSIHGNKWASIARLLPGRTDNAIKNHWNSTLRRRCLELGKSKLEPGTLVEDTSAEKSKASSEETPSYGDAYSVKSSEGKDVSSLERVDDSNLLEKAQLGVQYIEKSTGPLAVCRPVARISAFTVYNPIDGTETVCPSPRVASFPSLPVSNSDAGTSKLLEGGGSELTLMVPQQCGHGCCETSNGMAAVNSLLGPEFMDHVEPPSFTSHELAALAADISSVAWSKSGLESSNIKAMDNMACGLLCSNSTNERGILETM

B1: MBS2 probe (SmCYP71D375 promoter) (dsDNA)
DNA 1: AGATCCGTTGGAGAAGATCCGTTGGAGAAGATCCGTTGGAGA
DNA 2: TCTCCAACGGATCTTCTCCAACGGATCTTCTCCAACGGATCT
Consider B1, for which the binding result is “binds”.

B2: MBS1 probe (SmCYP71D375 promoter) (dsDNA)
DNA 1: GCTTCAGTTGAGCTGCTTCAGTTGAGCTGCTTCAGTTGAGCT
DNA 2: AGCTCAACTGAAGCAGCTCAACTGAAGCAGCTCAACTGAAGC
On to B2, for which the binding result is reported as “binds”.

The values above are taken from publication PMC12017799, “Molecular mechanism of SmMYB53 activates the expression of SmCYP71D375, thereby modulating tanshinone accumulation in Salvia miltiorrhiza”.
